Test results from patent publication US20100119511A1 (Biogen, published 2010).

How the values were obtained:
[1] = target: LTβR on human tumor cells (SKBR-3, HT29) (human, UniProt P36941 31-435); test: cell-based or functional assay
[2] = target: T1, human HER2/ErbB2, full length, on cells (human, UniProt P04626 23-1255); test: FACS (Table 2; cells not given, Examples 14-16 use SKBR3 or CHO/hHER2)
T1 construct: whole, on cells; also called hHER2/ErbB2; wild type HER2/ErbB

[3] = target: T2, HER2-Fc (species not stated); test: ELISA (Table 2; species of Her2 not given)
T2 construct: probably human
Method: (§1) Human and murine ErbB2-Fc were obtained from R&D Systems. Wells of 96-well plates were coated with 2 ug/ml or 0.2 ug/ml of human or murine HER2-Fc by incubation overnight at 4-8° C. with either of these six proteins (80 ul/well of a 0.2 or 2 ug/ml solution in PBS). Wells were emptied, filled completely with a solution of PBS with 1% BSA (blocking buffer) and incubated at room temperature for 1 hour. Wells were emptied, washed twice PBS containing 0.05% Tween 20 (PBST) and filled with the samples (80 ul/well of 3× dilution series of the standard and supernatants in blocking buffer) prepared in another 96-well plate. After a 2-hour incubation at room temperature, the wells were emptied, washed three times with PBST and filled with a solution of HRP-conjugated goat pAbs anti-human kappa chain (80 ul/well of a 2000-fold dilution in blocking buffer). After 1-hour incubation, the wells were emptied and filled with a solution of HRP substrate prepared freshly. The color was left to develop for 3 minutes and was stopped by addition of an equal volume of 1N H₂SO₄. Absorbance was measured at 450 nm using a Plate Reader (SpectraMax, Molecular Devices). The data was processed and graphs were created using SoftMax Pro software.

[4] = target: T3, HVEM-Ig (species not stated); test: FACS (Table 2; format not given, Example 16 detects HVEM-Fc on cell-bound fusion)
T3 construct: also called HVEM-Fc

[5] = target: T3, HVEM-Ig (species not stated); test: ELISA (Table 2; species of HVEM not given)
Method: as §1
Human and murine HVEM-Ig were expressed and purified in house.

[6] = target: T4, LTβR-Ig (species not stated); test: FACS (Table 2; format not given, Example 16 detects LTbR-Ig on cell-bound fusion)
T4 construct: also called LTβR-human Fc fusion

human HER2-Fc = target: T5, human HER2-Fc (human, UniProt P04626 23-652); test: ELISA on coated huHER2-Fc, detection anti-human kappa-HRP; value is C (midpoint) of the printed 4-P fit; x axis Fab equivalent concentration
T5 construct: extracellular domain; Homodimeric fusion protein from R&D Systems; also called human ErbB2-Fc; rhErbB2-Fc; not shown: Fc fragment of human IgG1

murine HER2-Fc = target: T6, murine HER2-Fc (mouse; human, UniProt P70424 23-653); test: ELISA on coated muHER2-Fc, detection anti-human kappa-HRP; value is C (midpoint) of the printed 4-P fit; x axis Fab equivalent concentration
T6 construct: extracellular domain; Homodimeric fusion protein from R&D Systems; also called murine ErbB2-Fc; not shown: Fc fragment of human IgG1

[7] = target: T4, LTβR-Ig (species not stated); test: ELISA (Table 2; species of LTbR not given)
Method: as §1
Human and murine LTBR-Ig were expressed and purified in house.

[8] = target: T4, LTβR-Ig (species not stated); test: biolayer interferometry (Octet), receptor Fc fusion on anti-human Fc sensor, culture supernatant
Method: (§2) Anti-human Fc-specific biosensors (Fortebio SKU 18-0001) were hydrated in OB (1×PBS supplemented with 1 mg/ml BSA, 0.05% NaN₃, and 0.02% TWEEN 20) for at least five minutes prior to assays. For each assay, the respective receptor Fc fusion was diluted to 10 μg/ml in OB and allowed to bind to the biosensors for five minutes. The sensors were then incubated in the indicated culture supernatant for an additional five minutes, and subsequently transferred to fresh wells […].

[9] = target: T3, HVEM-Ig (species not stated); test: as above
Method: as §2

[10] = target: T2, HER2-Fc (species not stated); test: as above
Method: as §2

T4 sequence (P36941 31-227): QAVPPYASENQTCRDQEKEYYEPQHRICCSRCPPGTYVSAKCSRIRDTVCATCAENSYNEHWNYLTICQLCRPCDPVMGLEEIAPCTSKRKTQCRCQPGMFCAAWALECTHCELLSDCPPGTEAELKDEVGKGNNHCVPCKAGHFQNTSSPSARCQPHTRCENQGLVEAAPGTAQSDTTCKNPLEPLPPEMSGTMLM
T3 sequence (Q92956 39-202): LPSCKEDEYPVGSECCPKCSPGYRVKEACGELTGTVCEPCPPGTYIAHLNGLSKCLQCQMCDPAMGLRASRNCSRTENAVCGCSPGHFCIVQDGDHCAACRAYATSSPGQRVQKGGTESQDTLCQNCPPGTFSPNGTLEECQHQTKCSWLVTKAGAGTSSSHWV
Sequence of LTβR on human tumor cells (SKBR-3, HT29) (P36941 31-435): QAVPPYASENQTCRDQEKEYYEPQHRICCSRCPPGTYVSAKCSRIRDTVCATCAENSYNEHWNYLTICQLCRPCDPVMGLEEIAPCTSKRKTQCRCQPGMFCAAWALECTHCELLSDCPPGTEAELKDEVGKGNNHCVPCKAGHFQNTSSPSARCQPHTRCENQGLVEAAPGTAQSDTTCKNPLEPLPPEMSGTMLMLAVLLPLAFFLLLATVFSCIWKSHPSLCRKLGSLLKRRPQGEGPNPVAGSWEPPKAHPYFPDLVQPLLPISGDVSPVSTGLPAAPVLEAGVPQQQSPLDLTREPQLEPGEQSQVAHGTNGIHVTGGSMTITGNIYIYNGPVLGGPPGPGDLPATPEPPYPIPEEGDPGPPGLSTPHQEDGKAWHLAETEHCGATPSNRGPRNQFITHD
T6 sequence (P70424 23-653): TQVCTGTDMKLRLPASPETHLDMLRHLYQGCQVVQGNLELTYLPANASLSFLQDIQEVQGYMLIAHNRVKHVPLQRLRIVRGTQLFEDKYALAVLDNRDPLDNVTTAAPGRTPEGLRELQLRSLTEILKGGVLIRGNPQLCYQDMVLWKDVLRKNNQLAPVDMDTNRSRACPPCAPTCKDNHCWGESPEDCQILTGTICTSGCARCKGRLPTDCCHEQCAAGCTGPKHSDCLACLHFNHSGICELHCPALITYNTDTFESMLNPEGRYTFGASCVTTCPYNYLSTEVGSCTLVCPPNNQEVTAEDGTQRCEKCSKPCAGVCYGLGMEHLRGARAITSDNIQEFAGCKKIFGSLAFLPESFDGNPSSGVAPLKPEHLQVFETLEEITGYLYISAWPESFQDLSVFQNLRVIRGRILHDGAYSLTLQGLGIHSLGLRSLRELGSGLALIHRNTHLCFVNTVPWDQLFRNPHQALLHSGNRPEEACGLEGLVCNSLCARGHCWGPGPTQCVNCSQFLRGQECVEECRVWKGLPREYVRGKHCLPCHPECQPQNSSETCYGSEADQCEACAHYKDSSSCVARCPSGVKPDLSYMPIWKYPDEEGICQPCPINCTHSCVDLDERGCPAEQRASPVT

B1: 71F10 Fab-hLIGHT fusion with the delta 4 linker (BIIB71F10-130) (other)
heavy: EVQLLESGGGLVQPGGSLRLSCAASGFTFSSYGMVWVRQAPGKGLEWVSSISSSGGLTWYADSVKGRFTISRDNSKNTLYLQMNSLRAEDTAVYYCASPPGIAVARDYWGQGTLVTVSSASTKGPSVFPLAPSSKSTSGGTAALGCLVKDYFPEPVTVSWNSGALTSGVHTFPAVLQSSGLYSLSSVVTVPSSSLGTQTYICNVNHKPSNTKVDKKVEPKSCDKLHWRLGEMVTRLPDGPAGSWQERRSHEVNPAAHLTGANSSLTGSGGPLLWETQLGLAFLRGLSYHDGALVVTKAGYYYIYSKVQLGGVGCPLGLASTITHGLYKRTPRYPEELELLVSQQSPCGRATSSSRVWWDSSFLGGVVHLEAGEEVVVRVLDERLVRLRDGTRSYFGAFMV
light: DIQMTQSPSSLSASVGDRVTITCRASQGISNYLAWYQQKPGKVPKLLIYAASTLQSGVPSRFSGSGSGTDFTLTISSLQPEDVATYYCQKYNSALLTFGGGTKVEIKRTVAAPSVFIFPPSDEQLKSGTASVVCLLNNFYPREAKVQWKVDNALQSGNSQESVTEQDSKDSTYSLSSTLTLSKADYEKHKVYACEVTHQGLSSPVTKSFNRGEC
modifications: Assembles as a trimer of heavy/light pairs; one pair is given.
notes: Fab heavy chain fused to human LIGHT extracellular portion; assembles as a trimer (66 kDa x3); also called pBIIB71F10-130; 71F10 Fab-Δ4huLIGHT
[1]
  CCL2 (MCP-1) transcript, fold difference test/control, HT29 cells, quantitative RT-PCR: 1050 fold
  CCL5 (RANTES) transcript, fold difference test/control, HT29 cells, quantitative RT-PCR: 1220 fold
  CCL7 (MCP-3) transcript, fold difference test/control, HT29 cells, quantitative RT-PCR: -527 fold
  CCL21 transcript, fold difference test/control, HT29 cells, quantitative RT-PCR: 546 fold
  CCR4 transcript, fold difference test/control, HT29 cells, quantitative RT-PCR: 1650 fold
  CXCL2 transcript, fold difference test/control, HT29 cells, quantitative RT-PCR: 1130 fold
  CXCL3 transcript, fold difference test/control, HT29 cells, quantitative RT-PCR: 1090 fold
  CXCL5 (ENA-78/LIX) transcript, fold difference test/control, HT29 cells, quantitative RT-PCR: 1810 fold
  CXCL9 transcript, fold difference test/control, HT29 cells, quantitative RT-PCR: 675 fold
  CXCL10 (IP-10) transcript, fold difference test/control, HT29 cells, quantitative RT-PCR: 5270 fold
  CXCL11 (I-TAC/IP9) transcript, fold difference test/control, HT29 cells, quantitative RT-PCR: 1730 fold
  IFNA2 transcript, fold difference test/control, HT29 cells, quantitative RT-PCR: 193 fold
  IL5 transcript, fold difference test/control, HT29 cells, quantitative RT-PCR: 940 fold
  IL8 transcript, fold difference test/control, HT29 cells, quantitative RT-PCR: 373 fold
  IL10RA transcript, fold difference test/control, HT29 cells, quantitative RT-PCR: 3440 fold
  LTB transcript, fold difference test/control, HT29 cells, quantitative RT-PCR: 2910 fold
  TNF transcript, fold difference test/control, HT29 cells, quantitative RT-PCR: 7370 fold
[2]
  EC50: 0.5 nM
[3]
  EC50: 0.05 nM
[4]
  EC50: 0.5 nM
[5]
  EC50: 0.01 nM
[6]
  EC50: 0.2 nM
Human HER2-Fc
  EC50: 0.00955 µg/mL
Murine HER2-Fc
  EC50: 0.0114 µg/mL
[7]
  EC50: 0.01 nM
[8]
  koff: 0.000168 s⁻¹
[9]
  koff: 0.000122 s⁻¹
[10]
  koff: 0.000112 s⁻¹
